# Laboratory results reported in IntAct's records for PubMed 21565615.
# B1: Protein c-Fos (Mus musculus), P01101 (parent)
# chain: MMFSGFNADYEASSSRCSSASPAGDSLSYYHSPADSFSSMGSPVNTQDFCADLSVSSANFIPTVTAISTSPDLQWLVQPTLVSSVAPSQTRAPHPYGLPTQSAGAYARAGMVKTVSGGRAQSIGRRGKVEQLSPEEEEKRRIRRERNKMAAAKCRNRRRELTDTLQAETDQLEDEKSALQTEIANLLKEKEKLEFILAAHRPACKIPDDLGFPEEMSVASLDLTGGLPEASTPESEEAFTLPLLNDPEPKPSLEPVKSISNVELKAEPFDDFLFPASSRPSGSETSRSVPDVDLSGSFYAADWEPLHSNSLGMGPMVTELEPLCTPVVTCTPGCTTYTSSFVFTYPEADSFPSCAAAHRKGSSSNEPSSDSLSSPTLLAL
# Variants of: B1
# Conditions: with esr2_mouse Esr2, O08537
# Chain of esr2_mouse Esr2, O08537 (O08537 whole entry): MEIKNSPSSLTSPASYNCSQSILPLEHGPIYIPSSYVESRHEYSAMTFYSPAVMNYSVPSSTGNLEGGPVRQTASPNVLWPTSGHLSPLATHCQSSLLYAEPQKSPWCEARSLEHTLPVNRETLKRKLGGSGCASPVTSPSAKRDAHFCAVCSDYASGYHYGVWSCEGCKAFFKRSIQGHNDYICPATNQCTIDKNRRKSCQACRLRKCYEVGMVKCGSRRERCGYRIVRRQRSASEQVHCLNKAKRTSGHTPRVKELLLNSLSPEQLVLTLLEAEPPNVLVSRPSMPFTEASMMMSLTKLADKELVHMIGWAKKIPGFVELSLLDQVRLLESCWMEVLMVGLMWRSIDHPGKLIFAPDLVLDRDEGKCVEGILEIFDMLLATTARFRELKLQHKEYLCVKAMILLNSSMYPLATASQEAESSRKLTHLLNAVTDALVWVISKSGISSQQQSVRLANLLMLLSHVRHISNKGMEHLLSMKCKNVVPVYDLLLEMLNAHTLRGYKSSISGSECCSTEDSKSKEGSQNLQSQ
row,effect of a mutation on the interaction,Variant
1,increasing interaction,S362E
2,decreasing interaction,S362A
